Experiments:
HLA-A*26:03 = experiment: IEDB peptide-MHC binding, purified MHC/competitive/fluorescence; filed as Kd, often an IC50 or EC50 that approximates it; ≥ and ≤ were set here for values at or beyond the usual limits of such assays; conditions: source organism: Mycobacterium leprae
HLA-B*27:05 [1] = experiment: as above; conditions: source organism: Mycobacterium leprae
HLA-B*07:02 [2] = experiment: as above; conditions: source organism: Mycobacterium leprae
HLA-B*08:03 [3] = experiment: as above; conditions: source organism: Mycobacterium leprae
HLA-A*01:01 [4] = experiment: as above; conditions: source organism: Mycobacterium leprae
HLA-A*26:02 [5] = experiment: as above; conditions: source organism: Mycobacterium leprae
HLA-A*02:06 = experiment: as above; conditions: source organism: Mycobacterium leprae
HLA-B*08:02 [6] = experiment: as above; conditions: source organism: Mycobacterium leprae
HLA-B*18:01 [7] = experiment: as above; conditions: source organism: Mycobacterium leprae
HLA-B*35:01 = experiment: as above; conditions: source organism: Mycobacterium leprae
HLA-A*30:01 = experiment: as above; conditions: source organism: Mycobacterium leprae
HLA-B*46:01 = experiment: as above; conditions: source organism: Mycobacterium leprae
HLA-A*31:01 [8] = experiment: as above; conditions: source organism: Mycobacterium leprae
HLA-B*58:01 [9] = experiment: as above; conditions: source organism: Mycobacterium leprae
HLA-A*11:01 [10] = experiment: as above; conditions: source organism: Mycobacterium leprae
HLA-B*57:01 [11] = experiment: as above; conditions: source organism: Mycobacterium leprae
HLA-A*02:01 [12] = experiment: as above; conditions: source organism: Mycobacterium leprae
HLA-B*48:01 [13] = experiment: as above; conditions: source organism: Mycobacterium leprae
HLA-B*08:01 [14] = experiment: as above; conditions: source organism: Mycobacterium leprae
HLA-A*02:03 = experiment: as above; conditions: source organism: Mycobacterium leprae
HLA-B*15:01 = experiment: as above; conditions: source organism: Mycobacterium leprae
HLA-A*69:01 [15] = experiment: as above; conditions: source organism: Mycobacterium leprae
HLA-A*68:02 = experiment: as above
HLA-B*40:01 [16] = experiment: as above; conditions: source organism: Mycobacterium leprae
HLA-B*15:17 [17] = experiment: as above; conditions: source organism: Mycobacterium leprae
HLA-A*02:50 = experiment: as above; conditions: source organism: Yersinia bercovieri ATCC 43970
HLA-A*02:11 = experiment: IEDB peptide-MHC binding, purified MHC/direct/fluorescence; filed as Kd, often an IC50 or EC50 that approximates it; ≥ and ≤ were set here for values at or beyond the usual limits of such assays; conditions: source organism: Yersinia enterocolitica subsp. enterocolitica 8081
HLA-A*02:16 = experiment: as above; conditions: source organism: Yersinia enterocolitica subsp. enterocolitica 8081
HLA-A*02:12 = experiment: as above; conditions: source organism: Yersinia enterocolitica subsp. enterocolitica 8081
HLA-A*02:01 [18] = experiment: as above; conditions: source organism: Yersinia enterocolitica
HLA-A*69:01 [19] = experiment: as above
HLA-B*15:09 = experiment: IEDB peptide-MHC binding, purified MHC/competitive/fluorescence; filed as Kd, often an IC50 or EC50 that approximates it; ≥ and ≤ were set here for values at or beyond the usual limits of such assays; conditions: source organism: Vaccinia virus WR
HLA-B*39:01 = experiment: as above; conditions: source organism: Vaccinia virus WR
HLA-B*27:05 [20] = experiment: IEDB peptide-MHC binding, purified MHC/direct/fluorescence; filed as Kd, often an IC50 or EC50 that approximates it; ≥ and ≤ were set here for values at or beyond the usual limits of such assays; conditions: source organism: Camelpox virus M-96
HLA-B*07:02 [21] = experiment: as above; conditions: source organism: Camelpox virus M-96
HLA-B*08:03 [22] = experiment: as above; conditions: source organism: Variola virus
HLA-A*01:01 [23] = experiment: as above; conditions: source organism: Camelpox virus M-96
HLA-A*26:02 [24] = experiment: as above; conditions: source organism: Variola virus
HLA-A*26:01 = experiment: as above; conditions: source organism: Variola virus
HLA-B*08:02 [25] = experiment: as above; conditions: source organism: Variola virus
HLA-B*18:01 [26] = experiment: as above; conditions: source organism: Camelpox virus M-96
HLA-A*31:01 [27] = experiment: as above; conditions: source organism: Camelpox virus M-96
HLA-B*58:01 [28] = experiment: as above; conditions: source organism: Camelpox virus M-96
HLA-A*11:01 [29] = experiment: as above; conditions: source organism: Camelpox virus M-96
HLA-B*57:01 [30] = experiment: as above; conditions: source organism: Camelpox virus M-96
HLA-B*48:01 [31] = experiment: as above; conditions: source organism: Camelpox virus M-96
HLA-B*08:01 [32] = experiment: as above; conditions: source organism: Variola virus
HLA-B*40:01 [33] = experiment: as above; conditions: source organism: Camelpox virus M-96
HLA-B*15:17 [34] = experiment: as above; conditions: source organism: Camelpox virus M-96
HLA-B*44:02 = experiment: as above; conditions: source organism: Camelpox virus M-96

TVGYMYIMK gave a Kd (HLA-A*26:03) of no less than 20 µM, a Kd (HLA-B*27:05 [1]) of no less than 20 µM and a Kd (HLA-B*07:02 [2]) of no less than 20 µM. For the same sequence, the Kd (HLA-B*08:03 [3]) was no less than 20 µM, the Kd (HLA-A*01:01 [4]) was no less than 20 µM and the Kd (HLA-A*26:02 [5]) was no less than 20 µM. The Kd (HLA-A*02:06) was no less than 20 µM, the Kd (HLA-B*08:02 [6]) was no less than 20 µM and the Kd (HLA-B*18:01 [7]) was no less than 20 µM. The Kd (HLA-B*35:01) was no less than 20 µM, the Kd (HLA-A*30:01) was 0.0488 µM and the Kd (HLA-B*46:01) was no less than 20 µM. For the same sequence, the Kd (HLA-A*31:01 [8]) was no less than 5 µM, the Kd (HLA-B*58:01 [9]) was no less than 20 µM and the Kd (HLA-A*11:01 [10]) was 0.0049 µM. It also gave a Kd (HLA-B*57:01 [11]) of no less than 20 µM, a Kd (HLA-A*02:01 [12]) of no less than 20 µM and a Kd (HLA-B*48:01 [13]) of no less than 20 µM. For the same sequence, the Kd (HLA-B*08:01 [14]) was no less than 20 µM, the Kd (HLA-A*02:03) was no less than 20 µM and the Kd (HLA-B*15:01) was no less than 20 µM. The Kd (HLA-A*69:01 [15]) was no less than 20 µM, the Kd (HLA-A*68:02; source organism: Mycobacterium leprae) was no less than 20 µM and the Kd (HLA-B*40:01 [16]) was no less than 20 µM. The Kd (HLA-B*15:17 [17]) was no less than 20 µM.

In the case of TLLCGAATA, the Kd (HLA-A*02:50) is reported as 0.012 µM, the Kd (HLA-A*02:11) is reported as 0.042 µM and the Kd (HLA-A*02:16) is reported as 0.057 µM. For the same sequence, the Kd (HLA-A*02:12) was 0.021 µM, the Kd (HLA-A*02:01 [18]) was 0.196 µM and the Kd (HLA-A*69:01 [19]; source organism: Yersinia enterocolitica) was 0.394 µM.

FENDIDEIL showed a Kd (HLA-B*15:09) of no less than 20 µM, a Kd (HLA-B*39:01) of no less than 20 µM and a Kd (HLA-A*68:02; source organism: Vaccinia virus WR) of 2.14 µM. For the same sequence, the Kd (HLA-B*27:05 [20]) was no less than 20 µM, the Kd (HLA-B*07:02 [21]) was no less than 20 µM and the Kd (HLA-B*08:03 [22]) was no less than 20 µM. For the same sequence, the Kd (HLA-A*01:01 [23]) was no less than 20 µM, the Kd (HLA-A*26:02 [24]) was no less than 20 µM and the Kd (HLA-A*26:01) was no less than 20 µM. For the same sequence, the Kd (HLA-B*08:02 [25]) was no less than 20 µM, the Kd (HLA-B*18:01 [26]) was 0.122 µM and the Kd (HLA-A*31:01 [27]) was no less than 20 µM. It also gave a Kd (HLA-B*58:01 [28]) of no less than 20 µM, a Kd (HLA-A*11:01 [29]) of no less than 20 µM and a Kd (HLA-B*57:01 [30]) of no less than 20 µM. It also gave a Kd (HLA-B*48:01 [31]) of 1.2 µM, a Kd (HLA-B*08:01 [32]) of no less than 20 µM and a Kd (HLA-A*69:01 [19]; source organism: Camelpox virus M-96) of no less than 20 µM. The Kd (HLA-B*40:01 [33]) was 0.0053 µM, the Kd (HLA-B*15:17 [34]) was no less than 20 µM and the Kd (HLA-B*44:02) was no less than 20 µM.
